The source of these data is PMC8432736.

In this test the target is Recombinant active ACE2-Fc (ACRO biosystems, AC2-H5257) (human) (UniProt Q9BYF1). Description: SPR. Background: In SPR one partner is held on a chip, and binding of the other changes the refractive index at the surface.
UniProt Q9BYF1, sequence (Q9BYF1 18-740): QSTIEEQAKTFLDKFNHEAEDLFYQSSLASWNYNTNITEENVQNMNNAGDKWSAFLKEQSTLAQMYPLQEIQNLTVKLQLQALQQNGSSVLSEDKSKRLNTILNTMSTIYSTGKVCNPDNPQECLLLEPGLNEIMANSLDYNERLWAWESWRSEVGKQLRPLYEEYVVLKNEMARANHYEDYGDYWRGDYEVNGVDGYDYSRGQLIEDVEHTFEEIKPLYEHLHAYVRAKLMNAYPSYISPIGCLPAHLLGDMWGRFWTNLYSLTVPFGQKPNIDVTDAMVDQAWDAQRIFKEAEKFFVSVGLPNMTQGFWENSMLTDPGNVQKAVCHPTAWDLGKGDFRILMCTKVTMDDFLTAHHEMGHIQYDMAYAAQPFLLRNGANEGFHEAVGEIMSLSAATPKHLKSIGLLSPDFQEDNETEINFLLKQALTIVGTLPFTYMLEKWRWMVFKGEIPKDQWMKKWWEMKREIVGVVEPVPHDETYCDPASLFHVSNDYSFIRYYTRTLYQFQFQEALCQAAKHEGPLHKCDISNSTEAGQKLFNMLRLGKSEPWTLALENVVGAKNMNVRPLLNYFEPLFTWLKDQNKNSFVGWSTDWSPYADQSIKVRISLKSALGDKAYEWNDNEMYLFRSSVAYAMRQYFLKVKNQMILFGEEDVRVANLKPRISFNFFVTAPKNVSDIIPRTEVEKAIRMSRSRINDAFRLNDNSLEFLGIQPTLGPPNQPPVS

As to Angiotensin II (peptide), the dissociation constant (Kd) (in general, the concentration at which binding is half-saturated) was determined as 117 nM.
